According to article PMC9482650, “Quantitative fragmentomics allow affinity mapping of interactomes” (Nature Communications, 2022):

T1: DVL1, O14640
T1 sequence (O14640 246-333, limits assumed, looked up): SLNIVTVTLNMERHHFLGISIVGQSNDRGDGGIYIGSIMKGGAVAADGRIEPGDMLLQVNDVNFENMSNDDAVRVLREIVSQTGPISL

T2: MPDZ_11, O75970
T2 sequence (O75970 1720-1817, limits assumed, looked up): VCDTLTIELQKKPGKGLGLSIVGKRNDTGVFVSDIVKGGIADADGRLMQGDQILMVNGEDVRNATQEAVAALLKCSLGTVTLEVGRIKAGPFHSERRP

T3: MPDZ_13, O75970
T3 sequence (O75970 1982-2070, limits assumed, looked up): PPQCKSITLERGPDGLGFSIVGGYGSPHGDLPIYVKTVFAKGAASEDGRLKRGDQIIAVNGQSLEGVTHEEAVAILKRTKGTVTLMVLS

T4: MPDZ_6, O75970
T4 sequence (O75970 1003-1099, limits assumed, looked up): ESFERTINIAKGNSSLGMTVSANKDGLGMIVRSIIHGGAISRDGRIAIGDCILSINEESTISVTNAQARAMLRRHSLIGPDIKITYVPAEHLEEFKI

T5: NHERF3_2, Q5T2W1
T5 sequence (Q5T2W1 129-225, limits assumed, looked up): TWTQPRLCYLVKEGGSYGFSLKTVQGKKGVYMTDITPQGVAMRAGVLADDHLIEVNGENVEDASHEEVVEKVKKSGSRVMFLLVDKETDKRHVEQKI

T6: PDZD11, Q5EBL8
T6 sequence (Q5EBL8 42-139, limits assumed, looked up): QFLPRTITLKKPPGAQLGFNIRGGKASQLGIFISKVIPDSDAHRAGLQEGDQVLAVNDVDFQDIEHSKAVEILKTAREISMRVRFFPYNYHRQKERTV

T7: PDZD2_5, O15018
T7 sequence (O15018 2617-2716, limits assumed, looked up): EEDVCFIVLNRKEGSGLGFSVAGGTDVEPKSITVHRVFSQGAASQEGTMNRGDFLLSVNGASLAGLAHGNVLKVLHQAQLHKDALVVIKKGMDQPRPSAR

T8: PDZD7_1, Q9H5P4
T8 sequence (Q9H5P4 81-178, limits assumed, looked up): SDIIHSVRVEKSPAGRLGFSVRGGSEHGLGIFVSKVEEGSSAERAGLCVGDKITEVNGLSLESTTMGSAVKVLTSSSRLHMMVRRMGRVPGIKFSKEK

T9: PREX2_2, Q70Z35
T9 sequence (Q70Z35 672-764, limits assumed, looked up): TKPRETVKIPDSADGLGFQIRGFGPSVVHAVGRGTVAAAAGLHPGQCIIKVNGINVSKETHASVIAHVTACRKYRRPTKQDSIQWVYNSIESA

T10: SHROOM4, Q9ULL8
T10 sequence (Q9ULL8 5-102, limits assumed, looked up): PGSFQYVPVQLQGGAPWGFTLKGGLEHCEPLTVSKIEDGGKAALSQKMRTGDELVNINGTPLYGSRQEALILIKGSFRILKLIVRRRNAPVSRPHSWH

T11: USH1C_1, Q9Y6N9
T11 sequence (Q9Y6N9 82-179, limits assumed, looked up): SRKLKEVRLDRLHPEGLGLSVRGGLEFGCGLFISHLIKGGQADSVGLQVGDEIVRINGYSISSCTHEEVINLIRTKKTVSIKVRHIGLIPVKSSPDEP

T12: USH1C_2, Q9Y6N9
T12 sequence (Q9Y6N9 206-303, limits assumed, looked up): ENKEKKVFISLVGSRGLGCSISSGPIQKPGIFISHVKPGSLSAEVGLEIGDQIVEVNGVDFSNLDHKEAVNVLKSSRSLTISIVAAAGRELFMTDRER


Experiments:
Assay in all cases: holdup assay
Set-up in all cases: key: below the threshold = too weak to quantify, mostly under pKd 3.1 to 4
Settings in all cases: plain residues with an end cap or a label only (N-terminal biotin on a linker: ttds)
CNKSR3, Q6P9H4 = target: CNKSR3, Q6P9H4
CNKSR3, Q6P9H4, sequence (Q6P9H4 203-303): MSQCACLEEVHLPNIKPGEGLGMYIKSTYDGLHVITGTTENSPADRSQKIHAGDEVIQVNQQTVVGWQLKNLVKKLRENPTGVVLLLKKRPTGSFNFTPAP

DLG5_2, Q8TDM6 = target: DLG5_2, Q8TDM6
DLG5_2, Q8TDM6, sequence (Q8TDM6 714-800): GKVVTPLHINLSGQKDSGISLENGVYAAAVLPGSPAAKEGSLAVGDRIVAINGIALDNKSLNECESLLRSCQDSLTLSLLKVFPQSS

DVL1, O14640 = target: T1, DVL1, O14640
IL16_2, Q14005 = target: IL16_2, Q14005
IL16_2, Q14005, sequence (Q14005 350-450): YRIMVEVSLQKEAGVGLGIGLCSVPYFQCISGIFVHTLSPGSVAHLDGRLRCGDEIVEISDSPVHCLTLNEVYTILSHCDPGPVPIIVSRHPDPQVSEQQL

Inadl_7, Q8NI35 = target: Inadl_7, Q8NI35
Inadl_7, Q8NI35, sequence (Q8NI35 1219-1332): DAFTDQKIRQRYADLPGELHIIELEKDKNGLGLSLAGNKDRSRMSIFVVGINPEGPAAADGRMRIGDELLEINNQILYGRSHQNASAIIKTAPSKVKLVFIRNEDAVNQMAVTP

MAGI1_5, Q96QZ7 = target: MAGI1_5, Q96QZ7
MAGI1_5, Q96QZ7, sequence (Q96QZ7 986-1098): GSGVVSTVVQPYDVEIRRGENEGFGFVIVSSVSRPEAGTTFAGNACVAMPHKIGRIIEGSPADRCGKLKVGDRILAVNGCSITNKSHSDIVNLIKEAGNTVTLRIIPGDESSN

MAGI1_6, Q96QZ7 = target: MAGI1_6, Q96QZ7
MAGI1_6, Q96QZ7, sequence (Q96QZ7 1146-1238): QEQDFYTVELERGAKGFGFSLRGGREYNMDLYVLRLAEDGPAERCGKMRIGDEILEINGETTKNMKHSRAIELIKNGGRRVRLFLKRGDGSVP

MAGI3_4, Q5TCQ9 = target: MAGI3_4, Q5TCQ9
MAGI3_4, Q5TCQ9, sequence (Q5TCQ9 716-815): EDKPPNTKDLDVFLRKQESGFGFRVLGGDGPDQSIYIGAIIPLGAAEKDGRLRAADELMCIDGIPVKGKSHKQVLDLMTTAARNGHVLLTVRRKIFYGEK

MAGI3_5, Q5TCQ9 = target: MAGI3_5, Q5TCQ9
MAGI3_5, Q5TCQ9, sequence (Q5TCQ9 847-941): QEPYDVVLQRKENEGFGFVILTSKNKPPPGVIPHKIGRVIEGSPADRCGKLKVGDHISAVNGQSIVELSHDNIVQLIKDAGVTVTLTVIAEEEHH

MAGI3_6, Q5TCQ9 = target: MAGI3_6, Q5TCQ9
MAGI3_6, Q5TCQ9, sequence (Q5TCQ9 1014-1103): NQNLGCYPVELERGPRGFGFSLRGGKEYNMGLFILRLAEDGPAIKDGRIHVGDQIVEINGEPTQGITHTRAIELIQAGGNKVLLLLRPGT

MPDZ_11, O75970 = target: T2, MPDZ_11, O75970
MPDZ_13, O75970 = target: T3, MPDZ_13, O75970
MPDZ_6, O75970 = target: T4, MPDZ_6, O75970
NHERF3_2, Q5T2W1 = target: T5, NHERF3_2, Q5T2W1
PARD3B_3, Q8TEW8 = target: PARD3B_3, Q8TEW8
PARD3B_3, Q8TEW8, sequence (Q8TEW8 490-594): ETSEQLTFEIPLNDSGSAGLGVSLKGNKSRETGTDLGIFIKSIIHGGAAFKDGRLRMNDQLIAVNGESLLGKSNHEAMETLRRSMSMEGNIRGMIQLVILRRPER

PARD3_1, Q8TEW0 = target: PARD3_1, Q8TEW0
PARD3_1, Q8TEW0, sequence (Q8TEW0 264-372): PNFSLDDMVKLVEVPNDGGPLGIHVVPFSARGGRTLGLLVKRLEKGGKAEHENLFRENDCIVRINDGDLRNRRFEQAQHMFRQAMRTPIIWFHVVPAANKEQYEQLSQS

PDZD11, Q5EBL8 = target: T6, PDZD11, Q5EBL8
PDZD2_5, O15018 = target: T7, PDZD2_5, O15018
PDZD7_1, Q9H5P4 = target: T8, PDZD7_1, Q9H5P4
PREX2_2, Q70Z35 = target: T9, PREX2_2, Q70Z35
RGS3, P49796-9 = target: RGS3, P49796-9
RGS3, P49796-9, sequence (P49796 other isoform, or with tags, fused parts or gaps): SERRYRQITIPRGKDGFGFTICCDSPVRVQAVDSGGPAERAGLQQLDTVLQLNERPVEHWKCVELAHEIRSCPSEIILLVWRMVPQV

RIMS1, Q86UR5 = target: RIMS1, Q86UR5
RIMS1, Q86UR5, sequence (Q86UR5 584-692): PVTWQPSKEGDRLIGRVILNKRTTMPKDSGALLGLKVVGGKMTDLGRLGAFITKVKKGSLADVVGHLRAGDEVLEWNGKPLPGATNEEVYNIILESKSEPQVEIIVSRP

SHROOM4, Q9ULL8 = target: T10, SHROOM4, Q9ULL8
TJP1_1, Q07157 = target: TJP1_1, Q07157
TJP1_1, Q07157, sequence (Q07157 18-120): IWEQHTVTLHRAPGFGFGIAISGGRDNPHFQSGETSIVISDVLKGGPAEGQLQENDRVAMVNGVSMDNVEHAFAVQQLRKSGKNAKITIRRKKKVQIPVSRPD

USH1C_1, Q9Y6N9 = target: T11, USH1C_1, Q9Y6N9
USH1C_2, Q9Y6N9 = target: T12, USH1C_2, Q9Y6N9

Row | Binder | pKd (CNKSR3, Q6P9H4) | pKd (DLG5_2, Q8TDM6) | pKd (DVL1, O14640) | pKd (IL16_2, Q14005) | pKd (Inadl_7, Q8NI35) | pKd (MAGI1_5, Q96QZ7) | pKd (MAGI1_6, Q96QZ7) | pKd (MAGI3_4, Q5TCQ9) | pKd (MAGI3_5, Q5TCQ9) | pKd (MAGI3_6, Q5TCQ9) | pKd (MPDZ_11, O75970) | pKd (MPDZ_13, O75970) | pKd (MPDZ_6, O75970) | pKd (NHERF3_2, Q5T2W1) | pKd (PARD3B_3, Q8TEW8) | pKd (PARD3_1, Q8TEW0) | pKd (PDZD11, Q5EBL8) | pKd (PDZD2_5, O15018) | pKd (PDZD7_1, Q9H5P4) | pKd (PREX2_2, Q70Z35) | other results
1 | HRTCYLVTQL [ASIC3, Q9UHC3] | below the threshold | below the threshold | below the threshold | below the threshold | 4.05 | 5.13 | below the threshold | below the threshold | 4.64 | below the threshold | below the threshold | below the threshold | below the threshold | 4.33 | below the threshold | below the threshold | below the threshold | below the threshold | below the threshold | below the threshold | pKd (RGS3, P49796-9): 4.32; pKd (RIMS1, Q86UR5): below the threshold; pKd (SHROOM4, Q9ULL8): below the threshold; pKd (TJP1_1, Q07157): 4.17; pKd (USH1C_1, Q9Y6N9): below the threshold; pKd (USH1C_2, Q9Y6N9): below the threshold
2 | RTRQRNETQV [HPV51-E6, P26554] | below the threshold | 4.63 | 4.86 | below the threshold | below the threshold | below the threshold | below the threshold | below the threshold | below the threshold | below the threshold | below the threshold | below the threshold | below the threshold | below the threshold | below the threshold | below the threshold | below the threshold | below the threshold | below the threshold | below the threshold | pKd (RGS3, P49796-9): below the threshold; pKd (RIMS1, Q86UR5): below the threshold; pKd (SHROOM4, Q9ULL8): below the threshold; pKd (TJP1_1, Q07157): below the threshold; pKd (USH1C_1, Q9Y6N9): below the threshold; pKd (USH1C_2, Q9Y6N9): below the threshold
